From PMC6628828 come the findings set out here.

The target of assay [1] is glutathione transferase P1-1 C47S mutant (human). The experiment in a line: ESI-MS.
For assay [2] the target is unchanged. The experiment in a line: cross-linking.
Assay [3] addresses glutathione transferase P1-1 C101S mutant (human). In words: ESI-MS.
Assay [4] shares this target. In words: cross-linking.

For the substance “glutathione transferase P1-1 C47S mutant (enzyme)”, in assay [1], the relative abundance of peak C (C47S dimer) worked out at 5%. In assay [2], the relative abundance of peak E (C47S dimer + 2×[Pt(NH3)]) came out at 54% and the relative abundance of peak F (C47S dimer + 2×[PtCl2] + [Pt(NH3)2]) was 24%.

In the case of “glutathione transferase P1-1 C101S mutant (enzyme)”, the relative abundance of peak C (C101S dimer) in assay [3] came out at 5%. In addition, in assay [4], the relative abundance of peak L (C101S dimer + 2×MeOH) stood at 18%.
